Data taken from publication PMC6697062.

Key:
[1] = biological target: C5A + CV3 one-armed SEEDbody; assay: BLI; oaSEEDbody on anti-human Fc (AHC) tips; association with 100 nM CEACAM5 at pH 7.4, dissociation at pH 7.4 in kinetic buffer (PBS, 0.1% Tween 20, 1% BSA); 30 C; 1:1 model
[2] = biological target: C5A + CV2 one-armed SEEDbody; assay: as above
[3] = biological target: C5A + K39 one-armed SEEDbody; assay: as above
[4] = biological target: C5A + K40 one-armed SEEDbody; assay: as above
[5] = biological target: C5A + IGKV3-15*01 one-armed SEEDbody; assay: as above
[6] = biological target: C5A + CV1 one-armed SEEDbody; assay: as above
[7] = biological target: C6B/IGKV3-15*01 one-armed SEEDbody; assay: BLI; C6B oaSEEDbody on anti-Fab tips; association with 100 nM CEACAM6 at pH 7.4, dissociation at pH 7.4; 1:1 model
[8] = biological target: C6B/CV2 one-armed SEEDbody; assay: as above
[9] = biological target: C6B/IGKV3-15*01 one-armed SEEDbody; assay: BLI; C6B oaSEEDbody on anti-Fab tips; association with 100 nM CEACAM6 at pH 7.4, dissociation at pH 5.0
[10] = biological target: C6B/CV2 one-armed SEEDbody; assay: as above
[11] = biological target: C6B/IGKV3-15*01 one-armed SEEDbody; assay: BLI; C6B oaSEEDbody on anti-Fab tips; association with 100 nM CEACAM6 at pH 7.4, dissociation at pH 6.0
[12] = biological target: C6B/CV2 one-armed SEEDbody; assay: as above

Chain of CEACAM6 (P40199 35-320): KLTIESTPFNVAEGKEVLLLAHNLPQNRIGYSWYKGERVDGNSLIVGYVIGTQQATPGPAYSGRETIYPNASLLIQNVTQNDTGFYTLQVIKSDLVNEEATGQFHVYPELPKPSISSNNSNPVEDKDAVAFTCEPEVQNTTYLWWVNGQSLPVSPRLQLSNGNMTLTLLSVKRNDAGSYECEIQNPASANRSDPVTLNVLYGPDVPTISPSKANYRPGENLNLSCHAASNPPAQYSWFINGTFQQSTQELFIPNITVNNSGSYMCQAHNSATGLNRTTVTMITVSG

“recombinant human His-tagged CEACAM5 (from UniProt P06731 35-685) (natural protein)” was tested, and the Kd [1] was 2.55 nM, the Kd [2] was 4.14 nM and the Kd [3] was 4.16 nM. For the same substance, the Kd [4] was 3.12 nM, the Kd [5] was 0.9 nM and the Kd [6] was 4.11 nM.

“CEACAM6 (from UniProt P40199 35-320) (natural protein)” gave a Kd [7] of 8.77 nM, a koff [7] of 0.000158 s⁻¹ and a Kd [8] of 7.73 nM. For the same substance, the koff [8] was 0.000262 s⁻¹, the koff [9] was 0.000361 s⁻¹ and the koff [10] was 0.000768 s⁻¹. For the same substance, the koff [11] was 0.00019 s⁻¹ and the koff [12] was 0.000142 s⁻¹.
